Assay results taken from patent US20240279318A1.
Numbering of substitutions follows the chain as printed. One block for each binder: values may come before it.

Columns and labels:
[1] = target: other peptide-loaded T2 cells; experiment: cell-based or functional assay
[2] = target: group 2: CDC14A, PTP4A1, BRCA2 and RCL1 homologous peptide/HLA-A*02:01 complexes (mixed); experiment: SPR (BIAcore T200), crude scFv captured, mixed complexes flowed over
[3] = target: group 1: ZNF566 and ARNTL homologous peptide/HLA-A*02:01 complexes (mixed); experiment: as above
[4] = target: group 3: OR1I1, OR51B6, OR6C1, ATG9A, RP1 and NR2E1 homologous peptide/HLA-A*02:01 complexes (mixed); experiment: as above
[5] = target: AFP158 homologous peptides/HLA-A*02:01 complexes; experiment: SPR, crude scFv captured, complexes as analyte

B1: AS167821A-AS167821A-TCE-KIH (bispecific antibody, human IgG1, kappa, L234A L235A)
heavy: EVQLVESGGGLVQPGRSLRLSCAASGFTFDDYAMHWVRQAPGKGLEWVSGISWNSGSIGYADSVKGRFTISRDNAKNSLYLQMNSLRAEDTALYYCAKDSRGYGDYRLGGAYWGQGTLVTVSSASTKGPSVFPLAPSSKSTSGGTAALGCLVKDYFPEPVTVSWNSGALTSGVHTFPAVLQSSGLYSLSSVVTVPSSSLGTQTYICNVNHKPSDTKVDKKVEPKSCDKTHTCPPCPAPEAAGGPSVFLFPPKPKDTLMISRTPEVTCVVVDVSHEDPEVKFNWYVDGVEVHNAKTKPREEQYNSTYRVVSVLTVLHQDWLNGKEYKCKVSNKALPAPIEKTISKAKGQPREPQVYTLPPSREEMTKNQVSLWCLVKGFYPSDIAVEWESNGQPENNYKTTPPVLDSDGSFFLYSKLTVDKSRWQQGNVFSCSVMHEALHNHYTQKSLSLSPGK
light: not shown
chain: QVRLVESGGGSVQAGGSLRLSCAASGRTYSTYAMGWFRQAPGKEREGVATIYIGSGRTYYVDSVKGRFTISQDNAKNTLYLQMNNLKPEDTAMYYCTADVDPYESSWSRGLGYWGQGTQVTVSSGGGGSGGGGSGGGGSGGGGSGGGGSQVRLVESGGGSVQAGGSLRLSCAASGRTYSTYAMGWFRQAPGKEREGVATIYIGSGRTYYVDSVKGRFTISQDNAKNTLYLQMNNLKPEDTAMYYCTADVDPYESSWSRGLGYWGQGTQVTVSSEPKSSDKTHTCPPCPAPEAAGGPSVFLFPPKPKDTLMISRTPEVTCVVVDVSHEDPEVKFNWYVDGVEVHNAKTKPREEQYNSTYRVVSVLTVLHQDWLNGKEYKCKVSNKALPAPIEKTISKAKGQPREPQVYTLPPSREEMTKNQVSLSCAVKGFYPSDIAVEWESNGQPENNYKTTPPVLDSDGSFFLVSKLTVDKSRWQQGNVFSCSVMHEALHNRYTQKSLSLSPGK
T cell redirected cell killing (LDH), 1 nM BsAb [1]: < 20%

B5: 34-AS170036 VL1VH1-98I108A (scFv)
scFv: QSALTQPRSVSGSPGQSVTISCAGTSSDVGSENYVSWYQQHPGKAPKLMIYQVNKRASGVPDRFSGSKSGNTASLTISGLQAEDEADYYCASYRSSDINIVFGGGTKLTVLGGGGSGGGGSGGGGSEVQLVESGGGLVQPGGSLRLSCAASGFTFSSYAMSWVRQAPGKGLEWVSTINSGTGSPYYADSVKGRFTISRDNSKNTLYLQMNSLRAEDTAVYYCAKNFFDGSWFLAPPAMDYWGQGTLVTVSSHHHHHH
SPR binding level [2]: 11.2 RU
SPR binding level [3]: 10.2 RU
SPR binding level [4]: 3.6 RU

B6: 15-AS170036 VL1VH1-57M98Q (scFv)
scFv: B5 scFv with I98Q, S183M, A234G
SPR binding level [2]: 2.8 RU
SPR binding level [3]: 5.1 RU
SPR binding level [4]: 1.2 RU

B7: 27-AS170036 VL1VH1-57K108S (scFv)
scFv: B5 scFv with I98H, S183K, A234S
SPR binding level [2]: 3.3 RU
SPR binding level [3]: 6.1 RU
SPR binding level [4]: 1.3 RU

B10: 05-AS170036 VL1VH1-56N98I (scFv)
scFv: B5 scFv with G182N, A234G
SPR binding level [2]: 7 RU
SPR binding level [3]: 4.4 RU
SPR binding level [4]: 2 RU

B12: 10-AS170036 VL1VH1-57K98F (scFv)
scFv: B5 scFv with I98F, S183K, A234G
SPR binding level [2]: 4 RU
SPR binding level [3]: 6.8 RU
SPR binding level [4]: 1 RU

B13: 16-AS170036 VL1VH1-56Y108A (scFv)
scFv: B5 scFv with I98H, G182Y
SPR binding level [2]: 32.6 RU
SPR binding level [3]: 4.5 RU
SPR binding level [4]: 3.2 RU

B15: 19-AS170036 VL1VH1-56N108A (scFv)
scFv: B5 scFv with I98H, G182N
SPR binding level [2]: 7.5 RU
SPR binding level [3]: 5 RU
SPR binding level [4]: 2.6 RU

B16: 25-AS170036 VL1VH1-57K108A (scFv)
scFv: B5 scFv with I98H, S183K
SPR binding level [2]: 6.3 RU
SPR binding level [3]: 10.9 RU
SPR binding level [4]: 2 RU

B20: 42-AS170036 VL1VH1-56Y98F108S (scFv)
scFv: B5 scFv with I98F, G182Y, A234S
SPR binding level [2]: 39.3 RU
SPR binding level [3]: 6.3 RU
SPR binding level [4]: 4.4 RU

B22: 48-AS170036 VL1VH1-56Y98Q108S (scFv)
scFv: B5 scFv with I98Q, G182Y, A234S
SPR binding level [2]: 56.6 RU
SPR binding level [3]: 9.3 RU
SPR binding level [4]: 6.1 RU

B23: 03-AS170036 VL1VH1-56Y98Q (scFv)
scFv: B5 scFv with I98Q, G182Y, A234G
SPR binding level [2]: 27.2 RU
SPR binding level [3]: 4 RU
SPR binding level [4]: 2.4 RU

B25: 45-AS170036 VL1VH1-56Y98I108S (scFv)
scFv: B5 scFv with G182Y, A234S
SPR binding level [2]: 64.7 RU
SPR binding level [3]: 9 RU
SPR binding level [4]: 6 RU

B26: 22-AS170036 VL1VH1-57H108A (scFv)
scFv: B5 scFv with I98H, S183H
SPR binding level [2]: 10 RU
SPR binding level [3]: 26.6 RU
SPR binding level [4]: 5.7 RU

B27: 40-AS170036 VL1VH1-56Y98F108A (scFv)
scFv: B5 scFv with I98F, G182Y
SPR binding level [2]: 79.2 RU
SPR binding level [3]: 13.8 RU
SPR binding level [4]: 9.5 RU

B33: 43-AS170036 VL1VH1-56Y98I108A (scFv)
scFv: B5 scFv with G182Y
SPR binding level [2]: 148 RU
SPR binding level [3]: 25.7 RU
SPR binding level [4]: 17.3 RU

Results, then the binder that gave them:

SPR binding level [2]: 0.4 RU
SPR binding level [3]: 0.8 RU
SPR binding level [4]: 0.2 RU
B2: AS170036 VL1VH1 (scFv)
scFv: B5 scFv with I98H, A234G

SPR response [5]: < 3.5 RU
B3: AS170036 VL1VH1-VLH98F (scFv)
scFv: B5 scFv with I98F, A234G

SPR binding level [2]: 16.6 RU
SPR binding level [3]: 28.2 RU
SPR binding level [4]: 4.7 RU
B4: 82-AS170036 VL1VH1-57M98Q108A (scFv)
scFv: B5 scFv with I98Q, S183M

SPR response [5]: < 3.5 RU
B8: AS170036 VL1VH1-VHG108D (scFv)
scFv: B5 scFv with I98H, A234D

SPR response [5]: < 3.5 RU
B9: AS170036 VL1VH1-VHG108A (scFv)
scFv: B5 scFv with I98H

SPR response [5]: < 3.5 RU
B11: AS170036 VL1VH1-VLH98Q (scFv)
scFv: B5 scFv with I98Q, A234G

SPR response [5]: < 3.5 RU
B14: AS170036 VL1VH1-VHS57M (scFv)
scFv: B5 scFv with I98H, S183M, A234G

SPR binding level [2]: 22.3 RU
SPR binding level [3]: 35.8 RU
SPR binding level [4]: 6.3 RU
B17: 67-AS170036 VL1VH1-57K98F108A (scFv)
scFv: B5 scFv with I98F, S183K

SPR response [5]: < 3.5 RU
B18: AS170036 VL1VH1-VHG108S (scFv)
scFv: B5 scFv with I98H, A234S

SPR binding level [2]: 21.1 RU
SPR binding level [3]: 15.3 RU
SPR binding level [4]: 6.5 RU
B19: 49-AS170036 VL1VH1-56N98F108A (scFv)
scFv: B5 scFv with I98F, G182N

SPR response [5]: < 3.5 RU
B21: AS170036 VL1VH1-VHG56N (scFv)
scFv: B5 scFv with I98H, G182N, A234G

SPR binding level [2]: 21.9 RU
SPR binding level [3]: 33.7 RU
SPR binding level [4]: 5.8 RU
B24: 70-AS170036 VL1VH1-57K98I108A (scFv)
scFv: B5 scFv with S183K

SPR response [5]: < 3.5 RU
B28: AS170036 VL1VH1-VHS57H (scFv)
scFv: B5 scFv with I98H, S183H, A234G

SPR binding level [2]: 14.3 RU
SPR binding level [3]: 22.6 RU
SPR binding level [4]: 3.9 RU
B29: 75-AS170036 VL1VH1-57K98Q108S (scFv)
scFv: B5 scFv with I98Q, S183K, A234S

SPR response [5]: < 3.5 RU
B30: AS170036 VL1VH1-VHG56Y (scFv)
scFv: B5 scFv with I98H, G182Y, A234G

SPR response [5]: < 3.5 RU
B31: AS170036 VL1VH1-VLH98I (scFv)
scFv: B5 scFv with A234G

SPR response [5]: < 3.5 RU
B32: AS170036 VL1VH1-VHS57K (scFv)
scFv: B5 scFv with I98H, S183K, A234G
